# Source: patent US11597752B2, “Peptides and combination of peptides and scaffolds thereof for use in immunotherapy against colorectal carcinoma (CRC) and other cancers” (priority 2015, dated 2023)
# Molecular target: HLA-A*02:01 (Homo sapiens, UniProt P04439, D140Y/D185E/D98H/E176V/E277Q/G131W/G231S/I119V/I121R/I166T/I218V/L300P/L318F/N151K/N90K/P208A/P217A/Q86G/Q94H/R138H/R169H/T345S)
# Assay: MHC binding assay (UV-ligand exchange, beta2m ELISA, peptide exchange yield)
# Conditions: binding to HLA-A*02:01, β2m ELISA
# Excerpt: Candidate peptides for T cell based therapies according to the present invention were further tested for their MHC binding capacity (affinity). The individual peptide-MHC complexes were produced by UV-ligand exchange, where a UV-sensitive peptide is cleaved upon UV-irradiation, and exchanged with the peptide of interest as analyzed. Only peptide candidates that can effectively bind and stabilize the peptide-receptive MHC molecules prevent dissociation of the MHC complexes. To determine the yield of the exchange reaction, an ELISA was performed based on the detection of the light chain (β2m) of stabilized MHC complexes. The assay was performed as generally described in Rodenko et al. (Rodenko et al., 2006).
# 96 well MAXISorp plates (NUNC) were coated over night with 2 ug/ml streptavidin in PBS at room temperature, washed 4× and blocked for 1 h at 37° C. in 2% BSA containing blocking buffer. Refolded HLA-A*02:01/MLA-001 monomers served as standards, covering the range of 15-500 ng/ml. Peptide-MHC monomers of the UV-exchange reaction were diluted 100 fold in blocking buffer. Samples were incubated for 1 h at 37° C., washed four times, incubated with 2 ug/ml HRP conjugated anti-β2m for 1 h at 37° C., washed again and detected with TMB solution that is stopped with […]. Absorption was measured at 450 nm. Candidate peptides that show a high exchange yield (preferably higher than 50%, most preferred higher than 75%) are generally preferred for a generation and production of antibodies or fragments thereof, and/or T cell receptors or fragments thereof, as they show sufficient avidity to the MHC molecules and prevent dissociation of the MHC complexes.
row,Substance,"Peptide exchange (MHC class I binding score, peptide exchange yield)"
1,152 (KLLAVIHEL; listed as Homo sapiens) [compound 152],“++” (≥20% = ++)
2,153 (ILFSEDSTKLFV; listed as Homo sapiens) [compound 153],“+++” (≥50 = +++)
3,154 (KLPSETIFVGC; listed as Homo sapiens) [compound 154],“+++” (≥50 = +++)
4,155 (RLLGEEVVRV; listed as Homo sapiens) [compound 155],“+++” (≥50 = +++)
5,156 (SLMMTIINL; listed as Homo sapiens) [compound 156],“++++” (≥75% = ++++)
6,157 (SLIERDLKL; listed as Homo sapiens) [compound 157],“+++” (≥50 = +++)
7,158 (GLLDPSVFHV; listed as Homo sapiens) [compound 158],“+++” (≥50 = +++)
8,159 (VLVDDDGIKVV; listed as Homo sapiens) [compound 159],“++” (≥20% = ++)
9,160 (KLLEFDQLQL; listed as Homo sapiens) [compound 160],“+++” (≥50 = +++)
10,161 (FLKNELDNV; listed as Homo sapiens) [compound 161],“+++” (≥50 = +++)
11,162 (KLMDYIDEL; listed as Homo sapiens) [compound 162],“+++” (≥50 = +++)
12,163 (RLLHEVQEL; listed as Homo sapiens) [compound 163],“+++” (≥50 = +++)
13,164 (KMLDEILLQL; listed as Homo sapiens) [compound 164],“++++” (≥75% = ++++)
14,165 (RLLDFPEAMVL; listed as Homo sapiens) [compound 165],“++++” (≥75% = ++++)
15,166 (GLLEARGILGL; listed as Homo sapiens) [compound 166],“+++” (≥50 = +++)
16,167 (SVIDHIHLISV; listed as Homo sapiens) [compound 167],“+++” (≥50 = +++)
17,168 (GLIRFPLMTI; listed as Homo sapiens) [compound 168],“+++” (≥50 = +++)

# The next lines start with the values.
row,"Peptide exchange (MHC class I binding score, peptide exchange yield)",Substance
1,“+++” (≥50 = +++),169 (YLAHFIEGL; listed as Homo sapiens) [compound 169]
2,“+++” (≥50 = +++),170 (ALAGGITMV; listed as Homo sapiens) [compound 170]
3,“++” (≥20% = ++),171 (RLQETEGMVAV; listed as Homo sapiens) [compound 171]
4,“+++” (≥50 = +++),172 (LLLDTVTMQV; listed as Homo sapiens) [compound 172]
5,“+++” (≥50 = +++),173 (KLGDLMVLL; listed as Homo sapiens) [compound 173]
6,“++++” (≥75% = ++++),174 (ILLDDNMQIRL; listed as Homo sapiens) [compound 174]
7,“+++” (≥50 = +++),175 (TLLGGKEAQALGV; listed as Homo sapiens) [compound 175]
8,“++” (≥20% = ++),176 (RTLDKVLEV; listed as Homo sapiens) [compound 176]
9,“+++” (≥50 = +++),177 (ALLQGAIESV; listed as Homo sapiens) [compound 177]
10,“++” (≥20% = ++),178 (YLFREPATI; listed as Homo sapiens) [compound 178]
